In the nanobody polyreactivity screen of Harvey et al. (2022):

Assay: yeast display, Sf9 membrane polyspecificity reagent, FACS + sequencing; frameworks hold sequencing errors
Summary of the method: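 Galactose-induced (36–48 hours) yeast carrying a synthetic nanobody display library were exposed to 10% biotinylated, detergent-solubilized Sf9 membrane reagent at 4 °C for 1 hour. FACS followed streptavidin microbead enrichment, using low and high (top ~1%) gates for expression (anti-HA) and reagent binding (streptavidin). Colony PCR, MiSeq 2 × 250 sequencing and CDR-length filtering followed. Labels for polyreactivity reflect the gate of origin.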

| Sequence | polyreactivity (PSR sort gate) |
| --- | --- |
| QVQLVESGGGLVQAGGSLRLSCAASGRTFRWYAMGWYRQAPGKEMELVAALTFRGGRTYYADSVKGRFTISRDNAKNTVYLQMNSLKPEDTAVYYCNAVTYSSPYRFDYWGQGTQVTVSS | low polyreactivity |
| QVQLVESGGGLVQAGGSLRLSCAASGRTFRWYAMGWYRQAPGKERELVAAITSGGGTYYADSVKGRFTIARDNAKNTVYLQMNSLKPEDTAVYYCNKLHRDRYDYWGQGTQVTVSS | high polyreactivity |
| QVQLVESGGGLVQAGGSLRLSCAASGRTFRYNAMGSYRQAPGKERELVAAISGRGSSTYYADSVKGRFTISRDNAKNTVYLQMNSLKPEDTAVYYCAALPASVRRPGWHDYWGQGTQVTVSS | high polyreactivity |
| QVQLVESGGGLVQAGGSLRLSCAASGRTFRYNAMGWSRQAPGKERELVADITKSGGTTYYADSVKGRFTISRDNAKNTVYLQMNSLKPEDTAVYYCNAYRVVHPWEYDYWGQGTQVTVSS | high polyreactivity |
| QVQLVESGGGLVQAGGSLRLSCAASGRTFRYNAMGWYRPAPGKERELVAAITKSGGTTYYADSVKGRFTISRDNAKNTVYLQMNSLKPEDTAVYYCNAYRVVHPWEYDYWGQGTQVTVSS | high polyreactivity |
| QVQLVESGGGLVQAGGSLRLSCAASGRTFRYNTMGCYRQAPGKERELVAAITKGAASTYYADSVKGRFTISRDNAKNTVYLQMNSLKPEDTAVYYCNAVYSRIVTQKYWGQGTQVTVSS | high polyreactivity |
| QVQLVESGGGLVQAGGSLRLSCAASGRTFRYYALGWYRQAPGKERELVAAITSSGDSTYYADSVKGRFTISRDNAKNTVYLQMHSLKQEDTAVYYCADGQPLFYDAEYGYWGQGTQVTVSS | low polyreactivity |
| QVQLVESGGGLVQAGGSLRLSCAASGRTFRYYAMGWYIQAPGKERELVATITGSGGSTYYADSVKGRFTISRDNAKNTVYLQMNSLKPEDTAVYYCNARKVRYPYRWYDYWGQGTQVTVSS | high polyreactivity |
| QVQLVESGGGLVQAGGSLRLSCAASGRTFRYYAMGWYRKAPGKERELVASIRGGGGTNYADSVKGRFTISRDNAKNTVYLQMNSLKPEDTAVYFCAASVGYSRVWLDYWGQGTQVTVSS | high polyreactivity |
| QVQLVESGGGLVQAGGSLRLSCAASGRTFRYYAMGWYRQAPGKERELVAAINRGGSTYYADSVKGRFTISRDNAKNTVYLQMNSLKPEDTAVYYCNTARGSKDPPHYYWGQGSQVTVSS | high polyreactivity |
| QVQLVESGGGLVQAGGSLRLSCAASGRTFRYYAMGWYRQAPGKERELVAAINWNGGRTYYADSVKGRFTISRDNAKNTVYLQMNSLKPEDTAVYYCAAYHYRSPVTGDYWGQGTQVTVSS | high polyreactivity |
| QVQLVESGGGLVQAGGSLRLSCAASGRTFRYYAMGWYRQAPGKERELVAAIRTSGSTNYADSVKGRFTISRDNAKNTVYLQMNSLKPEDTAVYYCAAQPYWRYPYRAERDYWGQGTQVTVSS | high polyreactivity |
| QVQLVESGGGLVQAGGSLRLSCAASGRTFRYYAMGWYRQAPGKERELVAAISVRTGSTSYADSVKGRFTISRDNAKNTVYLQMNSLKPEDTAVYYCNAPQPGKGRTRTRYYYWGQGTQVTVSS | high polyreactivity |
| QVQLVESGGGLVQAGGSLRLSCAASGRTFRYYAMGWYRQAPGKERELVAAISWDGARSYYADSVKGRFTISRDNAKNTVYLQMNSLKPEDTAVYYCAADFPGGTDRYYPMDYWGQGTQVTVSS | low polyreactivity |
| QVQLVESGGGLVQAGGSLRLSCAASGRTFRYYAMGWYRQAPGKERELVAAITSSGGSTYYADSVKGRFTISRDNAKNTVYLQMNSLKPEDTAVYYCNRTPYHAPWQDALYRYGYWGQGTQVTVSS | high polyreactivity |
| QVQLVESGGGLVQAGGSLRLSCAASGRTFRYYAMGWYRQAPGKERELVADISSTGRTYYADSVKGRFTISRDNAKNTVYLQMNSLKPEDTAVYYCNADYFFEFDYWGQGTQVTVSS | low polyreactivity |
| QVQLVESGGGLVQAGGSLRLSCAASGRTFRYYAMGWYRQAPGKERELVASITGSGGSTTYADSVKGRFTISRDNAKNTVYLQMNSLKPEDTAVYYCAVRYPYYSYRAKLGYWGQGTQVTVSS | high polyreactivity |
| QVQLVESGGGLVQAGGSLRLSCAASGRTFRYYAMGWYRQAPGKERELVASITKRGGSTYYADSVKGRFTISRDNAKNTVYLQMNSLKPEDTAVYYCNTRTGSFFQGYYWGQGTQVTVSS | high polyreactivity |
| QVQLVESGGGLVQAGGSLRLSCAASGRTFRYYAMGWYRQAPGKERELVASITSGGRTYYADSVKGRFTISRDNAKNTVYLQMNSLKPEDTAVYYCAASTRYEGNYWGQGTQVTVSS | high polyreactivity |
| QVQLVESGGGLVQAGGSLRLSCAASGRTFRYYAMGWYRQAPGKVRELVAAINWSGGSTYYADSVKGRFTISRDNAKNTVYLQMNSLKPEDTAVYYCAAVGHPSPPRTDLYYWGQGTQVTVSS | low polyreactivity |
| QVQLVESGGGLVQAGGSLRLSCAASGRTFRYYAMGWYRQEPGKERELVAVITSGASTYYADSVKGRFTISRDNAKNTVYLQMNCLKPEDTAVYYCNARYSWKYDSWGQGTQVTVSS | high polyreactivity |
| QVQLVESGGGLVQAGGSLRLSCAASGRTFRYYAMGWYRQPPGKERELVAAISISGGNTYYADSVKGRFTISRDNAKNTVYLQMNSLKPEDTAVYYCAAAGRGSGYDYWGQGTQVTVSS | high polyreactivity |

| Sequence | polyreactivity (PSR sort gate) |
| --- | --- |
| QVQLVESGGGLVQAGGSLRLSCAASGRTFRYYTKGWSRQAPGKERELVADINTSVGSTDYADSVKGRFTISRDNAKNTVYLQMNSLKPEDTAVYYCAKVGFTYYAVDYWGQGTQVTVSS | high polyreactivity |
| QVQLVESGGGLVQAGGSLRLSCAASGRTFRYYVMGWYRQAPGKERELVADISRGGGRTRYADSVKGRFTISRDNAKNTVDLQMNSLKPEDTAVYYCAARSYTGQFGYWGQGTQVTVSS | high polyreactivity |
| QVQLVESGGGLVQAGGSLRLSCAASGRTFSAYAMGWYRQAPGKERELVAAISRRGGSTYYADSVKGRFTISRDNAKNTVYLQMNSLKPEDTAVYYCAADVYKQYGYYYWGQGTQVTVSS | high polyreactivity |
| QVQLVESGGGLVQAGGSLRLSCAASGRTFSAYAMGWYRQAPGKERELVARITSVDSTNYADSVKGRFTISRDNAKNTVYLLMNSLKPEDTAVYYCNATFGYPFVDYDDYWGQGTQVTVSS | low polyreactivity |
| QVQLVESGGGLVQAGGSLRLSCAASGRTFSFYAMGWYRQAPGKERELVAGIDWDDGSTSYADSVKGRFTISRDNAKNTVYLQMNSLKPEDTAVYYCAADIGYDVYNDYDYWGQGTQVTVSS | low polyreactivity |
| QVQLVESGGGLVQAGGSLRLSCAASGRTFSGNAMGWYRQAPGKERELVAAINWRGGRTYYADSVKGRFTISRDNAKNTVYLQMNSLKPEDTAVYYCAVSAYKGYDYWGQGTQVTVSS | high polyreactivity |
| QVQLVESGGGLVQAGGSLRLSCAASGRTFSGNARGWYRQAPGKERELVATITRRGGSTYYADSVKGRFTISRDNAKNTVYLQMNSLKPEDTAVYYCAARRVVNGGQGYESWGQGTQVTVSS | high polyreactivity |
| QVQLVESGGGLVQAGGSLRLSCAASGRTFSGYAMGWDRQAPGKERELDAAISRGGSTNYADSVKGRFTISRDNAKNTVYLQMNSLKPEDTAVYYCAVRVYYGWAQPGYYYWGQGTQVTVSS | high polyreactivity |
| QVQLVESGGGLVQAGGSLRLSCAASGRTFSGYAMGWYRQAPGKERELVAAISSGGGSTYYADSVKGRFTISRDNAKNSVYLQMNSLKPEDTAVYYCAADGYPGDYDYWGQGTQVTVSS | low polyreactivity |
| QVQLVESGGGLVQAGGSLRLSCAASGRTFSGYVMGWYRQAPGKERELVATINGSGASTYYADSVKGRFTISRDNAKNTVYLQTNSLKPEDTAVYYCAAKRYRPKYEYYYWGQGTQVTVSS | high polyreactivity |
| QVQLVESGGGLVQAGGSLRLSCAASGRTFSHNAMGWYRQAPGKERELVATINSGGSTYADSVKGRFTISRDNAKNTVYLQMNSLKPEDTAVYYCNAAHGSRAFFGGYDYWGQGTQVTVSS | high polyreactivity |
| QVQLVESGGGLVQAGGSLRLSCAASGRTFSKNAMGWYRQAPGKERELVADISRRGGRTYYADSVNGRFTISRDNAKNTVYLQMNSLKPEDTAVYYSAARRRGSVGVGYAYPYNYWGQGTQVTVSS | high polyreactivity |
| QVQLVESGGGLVQAGGSLRLSCAASGRTFSNNAMGWYRQAPGKERELVAAISSTGGRTYYADSVKGRFTISRDNAKNTGYLQLNSLKPEDTAVYYCAATYVHYPSLGYDYWGQGTQVTVSS | high polyreactivity |
| QVQLVESGGGLVQAGGSLRLSCAASGRTFSPYAMAWYRQAPGKEREFVAAIRVRGGSTYYADSVKGRFTISRDNAKNTVYLQMNSLKPEDTAVYYCNAQYLVYNGYPYLYDYWGQGTQVTVSS | high polyreactivity |
| QVQLVESGGGLVQAGGSLRLSCAASGRTFSPYAMGWYRQAPGKERELVAAITNGGSTHYADSVKGRFTISRDNAKNTVYLQMNSLKPEDTAVYYPYDYWGQGTQVTVSS | low polyreactivity |
| QVQLVESGGGLVQAGGSLRLSCAASGRTFSPYAMGWYRQAPGKERELVAAITSRGASTYYADSVKGRFTISRDNAKNTVYLQMNSLKPEDTAVYDCNSGRTYRRLGDYWGQGTQVTVSS | high polyreactivity |
| QVQLVESGGGLVQAGGSLRLSCAASGRTFSQNAMGWYRQAPGKERELVAAISWSGGRTYYADSVKGRFTISRDNAKNTVYLQMNSLKPEDTAVYYCAKSQHRTYYYWGQGTQVTVSS | high polyreactivity |
| QVQLVESGGGLVQAGGSLRLSCAASGRTFSQYAMGWYRQAPRKERELVAAISWGGRTYYADSVKGRFTISRDNAKNTVYLQMNSLKPEDTAVYYCAASSKLTYYEENHWGQGTQVTVSS | high polyreactivity |
| QVQLVESGGGLVQAGGSLRLSCAASGRTFSRNAMGRYRQAPGKVRELVATISSSGVRTYYADSVKGRFTMSRDNAKNTVYLQMNSLKPEETAVYYWAAAWRYYSAASGYDYWGQGTLVTVSS | low polyreactivity |
| QVQLVESGGGLVQAGGSLRLSCAASGRTFSRYAMGWYRQAPGKERELVAAISKSSGTTSYADSVKGRFTISRDNAKNTVYLQMKSQKPEDTAVYYCAAGITGRYYGVRFSEDYWGQGTQVTVSS | high polyreactivity |
| QVQLVESGGGLVQAGGSLRLSCAASGRTFSRYAMGWYRQAPGKERELVAAISSSGGSTYYADSVKGRFTISRDNAKNTVYLQMNSLKPEDTAVYYCAKYFIRDNRYDYWGQGTQVTVSS | high polyreactivity |
